Measured values taken from the supplement of paper PMC10126150.
± gives the standard deviation of the averaged measurements.

Test system: ATP
Assay: switch fluorescence ratio, 500 uM ATP over buffer (Cy3 cluster intensity, sum of 5 cycles each) (fold (ratio)); higher = stronger signal-on switching upon ATP binding; sequences stand for … in TCGTCGGCAGCGTCAGATGTGTATAAGAGACAGTTTTTTTTTTTTTTTTTTTTTTTTT…TC
Conditions: aptamer strand: ATP DNA aptamer (quencher-CACCTGGGGGAGTATTGCGGAGGAAGG + anchor), 100 nM annealed; ATP concentration: 500 uM
Summary of the method: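 Values give the fluorescence ratio for each switch-domain sequence, averaged from per-cluster ratios of summed target-cycle to summed buffer-cycle Cy3 intensity. The Cy3-labelled switching-strand clusters sat on a modified Illumina MiSeq flow-cell, were annealed to 100 nM quencher-labelled ATP aptamer, and were imaged in selection buffer, then after 15 min with 500 uM ATP at 22 °C. Five cycles ran with NaOH stripping and re-annealing between them, and clusters outside 100-1000 RFU were excluded.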
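Note: ATP exposure 15 min at 22 °C before imaging.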

Row | Sequence | switch fluorescence ratio
1 | ACAGGCAGGA | 1.01 ± 0.022
2 | ACAGGCCAGG | 1.23 ± 0.082
3 | ACAGGGGAAT | 1.01 ± 0.012
4 | ACAGGGGTAA | 1.01 ± 0.013
5 | ACAGGGGTTA | 1.25 ± 0.4
6 | ACAGGGGTTT | 1.37 ± 0.7
7 | ACAGGGTGCA | 1.03 ± 0.052
8 | ACAGGGTTAC | 0.991 ± 0.027
9 | ACAGGTATTA | 0.996 ± 0.017
10 | ACAGGTCATT | 1.01 ± 0.034
11 | ACAGTATGGC | 0.952 ± 0.041
12 | ACAGTATGGG | 1.03 ± 0.021
13 | ACAGTCAAGG | 1.02 ± 0.035
14 | ACAGTCAGAT | 1.057 ± 0.0067
15 | ACAGTCATGG | 1.021 ± 0.0092
16 | ACAGTCTCTG | 1.03 ± 0.018
17 | ACAGTGCCGG | 1.02 ± 0.055
18 | ACAGTGCGGC | 0.961 ± 0.035
19 | ACAGTTCCCC | 1.13 ± 0.25
20 | ACAGTTGTTA | 0.98717 ± 0.00059
21 | ACAGTTTTGC | 0.985 ± 0.02
22 | ACATAAAGGG | 1.03 ± 0.024
23 | ACATAATTTC | 1.03 ± 0.02

Row | Sequence | switch fluorescence ratio
24 | ACATACCGTG | 1.21 ± 0.038
25 | ACATACGAGT | 1.38 ± 0.029
26 | ACATACGCAA | 4.63 ± 0.56
27 | ACATATGGTA | 0.9801 ± 0.0085
28 | ACATATTGTG | 1.03 ± 0.062
29 | ACATCAGATG | 1.005 ± 0.0023
30 | ACATCTTCGA | 0.97 ± 0.046
31 | ACATGAATGG | 0.969 ± 0.016
32 | ACATGATCTC | 0.993 ± 0.021
33 | ACATGATGGC | 1.05 ± 0.018
34 | ACATGATTCG | 0.99 ± 0.03
35 | ACATGATTGC | 1.029 ± 0.0054
36 | ACATGATTGG | 0.97 ± 0.037
37 | ACATGCTACG | 1.05 ± 0.034
38 | ACATGGGGGG | 0.993 ± 0.038
39 | ACATGGGTGC | 1.11 ± 0.063
40 | ACATGTTGCC | 1.02 ± 0.0074
41 | ACATGTTGTT | 0.993 ± 0.024
42 | ACATTCCAGT | 1.14 ± 0.15
43 | ACATTCGCGT | 1.05 ± 0.018
44 | ACATTCTACG | 1.25 ± 0.017
45 | ACATTTGACG | 1.05 ± 0.017
46 | ACATTTGGGA | 0.964 ± 0.026

Row | Sequence | switch fluorescence ratio
47 | ACATTTGTGG | 1.01 ± 0.021
48 | ACCAAATAAG | 1.02 ± 0.023
49 | ACCAATAGGA | 1.01 ± 0.021
50 | ACCAATATAT | 0.996 ± 0.033
51 | ACCACGAATG | 1.025 ± 0.0051
52 | ACCACGCGGG | 1.01 ± 0.066
53 | ACCAGATCAC | 1.04 ± 0.019
54 | ACCAGCCGGG | 1.09 ± 0.062
55 | ACCAGGGCAT | 1.067 ± 0.0076
56 | ACCAGGTCTA | 1.07 ± 0.017
57 | ACCAGGTGGG | 2.75 ± 0.75
58 | ACCAGTAGAC | 1.038 ± 0.0074
59 | ACCAGTCTCG | 1.07 ± 0.08
60 | ACCAGTGAGT | 0.969 ± 0.011
61 | ACCAGTGCTG | 1 ± 0.04
62 | ACCATAATGG | 1.021 ± 0.01
63 | ACCATACTGC | 1.23 ± 0.12
64 | ACCATCGATA | 1.03 ± 0.024
65 | ACCATGCGTC | 0.99 ± 0.031
66 | ACCCAAAATT | 1.05 ± 0.033
67 | ACCCAATTTT | 1.03 ± 0.036
68 | ACCCAGCGCT | 1.04 ± 0.023
69 | ACCCCGGGCA | 1.08 ± 0.018

Row | Sequence | switch fluorescence ratio
70 | ACCCCTTGAT | 1.04 ± 0.023
71 | ACCCGAGGTC | 1.09 ± 0.015
72 | ACCCGATTGC | 1.29 ± 0.044
73 | ACCCGCCAGC | 3.96 ± 1.6
74 | ACCCTCAAAA | 1.31 ± 0.031
75 | ACCCTGCGAG | 1.05 ± 0.032
76 | ACCGAGATCA | 1.03 ± 0.014
77 | ACCGAGGAGG | 0.961 ± 0.026
78 | ACCGATTGTT | 1.017 ± 0.0016
79 | ACCGCGAAGG | 1.025 ± 0.0058
80 | ACCGCGCGAC | 2.49 ± 0.053
81 | ACCGGGATGC | 3.66 ± 0.26
82 | ACCGGGCTGC | 1.06 ± 0.024
83 | ACCGGTTAAC | 1.02 ± 0.035
84 | ACCGGTTATA | 1.03 ± 0.038
85 | ACCGGTTTTC | 0.984 ± 0.023
86 | ACCGTATGAC | 1.05 ± 0.068
87 | ACCGTATGGC | 1.02 ± 0.023
88 | ACCGTCATTT | 1.05 ± 0.046
89 | ACCGTCTCAG | 1.05 ± 0.026
90 | ACCGTTGTTC | 1.04 ± 0.02
91 | ACCGTTTCGT | 0.94 ± 0.029
92 | ACCTAAAATA | 1.07 ± 0.085

Row | Sequence | switch fluorescence ratio
93 | ACCTAACAGG | 0.9728 ± 0.0095
94 | ACCTCCCGTT | 1.12 ± 0.064
95 | ACCTCGGACC | 1.09 ± 0.022
96 | ACCTCTTGGG | 0.9405 ± 0.0011
97 | ACCTGGCATC | 1.122 ± 0.0016
98 | ACCTGTTGTT | 0.991 ± 0.016
99 | ACCTTGGCTC | 1.1 ± 0.06
100 | ACCTTGGTTG | 0.9609 ± 0.0054
101 | ACCTTTACGT | 1.17 ± 0.033
102 | ACCTTTAGTG | 1.03 ± 0.019
103 | ACCTTTTTCA | 1.021 ± 0.0084
104 | ACGAACGTTG | 1.26 ± 0.089
105 | ACGAATGTGC | 1.022 ± 0.0097
106 | ACGAATGTTG | 0.9918 ± 0.0029
107 | ACGAATTCTG | 1.02 ± 0.042
108 | ACGACCTGCA | 1.51 ± 0.075
109 | ACGACTAGGT | 1.102 ± 0.008
110 | ACGACTGTTA | 1.04 ± 0.02
111 | ACGAGGATTG | 1.042 ± 0.0021
112 | ACGAGGGCGT | 1.03 ± 0.017
113 | ACGAGGGGGA | 1.05 ± 0.016
114 | ACGAGGTAAG | 1.079 ± 0.0031
115 | ACGAGGTAGA | 1.02 ± 0.021

Row | Sequence | switch fluorescence ratio
116 | ACGATAGTTA | 0.992 ± 0.01
117 | ACGATGGTTG | 0.9729 ± 0.0095
118 | ACGATTGTCT | 0.973 ± 0.037
119 | ACGCAATGAT | 5.18 ± 0.069
120 | ACGCACGATT | 1.37 ± 0.1
121 | ACGCAGAACG | 1.36 ± 0.074
122 | ACGCATTTGG | 1.1159 ± 0.00088
123 | ACGCCGCGTT | 1.42 ± 0.032
124 | ACGCCGTGTG | 0.999 ± 0.022
125 | ACGCGATAAC | 4.27 ± 0.27
126 | ACGCGGGGAG | 1.01 ± 0.034
127 | ACGCGGTTTT | 1.02 ± 0.027
128 | ACGCTGAGCA | 1.033 ± 0.008
129 | ACGCTGGAAG | 0.9892 ± 0.0067
130 | ACGCTGGGGG | 1.06 ± 0.041
131 | ACGCTTACTA | 1.44 ± 0.054
132 | ACGCTTGGGA | 0.998 ± 0.048
133 | ACGCTTTACC | 1.89 ± 0.11
134 | ACGCTTTATT | 1.08 ± 0.032
135 | ACGGAATTTG | 1.04 ± 0.019
136 | ACGGACGCAA | 3.95 ± 0.66
137 | ACGGAGAAAC | 1.35 ± 0.11
138 | ACGGAGCGGG | 1.35 ± 0.25

Row | Sequence | switch fluorescence ratio
139 | ACGGAGGATA | 1.11 ± 0.014
140 | ACGGAGGGGG | 0.96 ± 0.042
141 | ACGGATGGGG | 0.997 ± 0.019
142 | ACGGATGTTG | 1.01 ± 0.059
143 | ACGGCTCAT | 1.01 ± 0.037
144 | ACGGCTCTGG | 1.015 ± 0.0057
145 | ACGGGACAGC | 1.2 ± 0.064
146 | ACGGGACATT | 1.19 ± 0.033
147 | ACGGGATATA | 1.02 ± 0.058
148 | ACGGGCGACG | 1.02 ± 0.025
149 | ACGGGGCGTA | 0.98581 ± 0.00064
150 | ACGGGGGCTG | 0.996 ± 0.037
151 | ACGGGGGGTG | 1.01 ± 0.077
152 | ACGGGGTAAT | 1.22 ± 0.35
153 | ACGGGGTATT | 0.996 ± 0.028
154 | ACGGGGTCTA | 0.993 ± 0.027
155 | ACGGGGTGGA | 1 ± 0.037
156 | ACGGGGTTTG | 0.995 ± 0.018
157 | ACGGGTACGC | 1.01 ± 0.021
